Substitutions are numbered along the chain they refer to. Names may count otherwise.
B1: A281C: bx9 SEQ ID NO:1 mutant (protein)
chain: MASSRTGAGAGGRVVVFPFPFQGHFNPVMRLARALHARGLAITVFHSGALDPADYPADYRFVPVTVEADPKLLASEDIAAIVTTLNASCDAPFRARLSALLAAEGRDSVRCVFTDVSWNAVLTASSDLGVPALGMMTASAASLRDYMAYRTLIDKGYLPVKEERKEDPVPELPPYLVKDLLRVDTSDLEEFAELLARTVTAARRASGLIFNTFPLIETDTLAEIHKALSVPVFAVAPLNKLVPTATASLHGVVQADRGCLQWLDTQQPGSVLYVSFGSMACMDPHEFVELAWGLADSKRPFVWVVRPNLIRGFESGALPDGVEDEVRGRGIVVAWAPQEEVLAHPAVGGFLTHNGWNSTVEAISEGVPMVCCPRHGDQFGNMRYVCDVWKVGTELVGEQLERGQVKAAIDRLFGTKEGEEIKERMKEFKIAAAKGIGIGVDVDETASPRTDLTDLVDLIKSF
modifications: Zea mays
B2: T220G: bx9 SEQ ID NO:1 mutant (protein)
chain: B1 chain with T220G, C281A
modifications: Zea mays
B3: T220L: bx9 SEQ ID NO:1 mutant (protein)
chain: B1 chain with T220L, C281A
modifications: Zea mays
B4: T220I: bx9 SEQ ID NO:1 mutant (protein)
chain: B1 chain with T220I, C281A
modifications: Zea mays
B5: T220S: bx9 SEQ ID NO:1 mutant (protein)
chain: B1 chain with T220S, C281A
modifications: Zea mays
B6: T220Q: bx9 SEQ ID NO:1 mutant (protein)
chain: B1 chain with T220Q, C281A
modifications: Zea mays
B7: A281M: bx9 SEQ ID NO:1 mutant (protein)
chain: B1 chain with C281M
modifications: Zea mays
B8: A281Q: bx9 SEQ ID NO:1 mutant (protein)
chain: B1 chain with C281Q
modifications: Zea mays
B9: A202L: bx9 SEQ ID NO:1 mutant (protein)
chain: B1 chain with A202L, C281A
modifications: Zea mays
B10: T220V: bx9 SEQ ID NO:1 mutant (protein)
chain: B1 chain with T220V, C281A
modifications: Zea mays
B11: A202V: bx9 SEQ ID NO:1 mutant (protein)
chain: B1 chain with A202V, C281A
modifications: Zea mays
B12: T220R: bx9 SEQ ID NO:1 mutant (protein)
chain: B1 chain with T220R, C281A
modifications: Zea mays
B13: T220E: bx9 SEQ ID NO:1 mutant (protein)
chain: B1 chain with T220E, C281A
modifications: Zea mays
B14: A202F: bx9 SEQ ID NO:1 mutant (protein)
chain: B1 chain with A202F, C281A
modifications: Zea mays
B15: T220C: bx9 SEQ ID NO:1 mutant (protein)
chain: B1 chain with T220C, C281A
modifications: Zea mays
B16: T220Y: bx9 SEQ ID NO:1 mutant (protein)
chain: B1 chain with T220Y, C281A
modifications: Zea mays
B17: F210W: bx9 SEQ ID NO:1 mutant (protein)
chain: B1 chain with F210W, C281A
modifications: Zea mays
B18: T220N: bx9 SEQ ID NO:1 mutant (protein)
chain: B1 chain with T220N, C281A
modifications: Zea mays
B19: T220A: bx9 SEQ ID NO:1 mutant (protein)
chain: B1 chain with T220A, C281A
modifications: Zea mays
B20: T220K: bx9 SEQ ID NO:1 mutant (protein)
chain: B1 chain with T220K, C281A
modifications: Zea mays
B21: A202M: bx9 SEQ ID NO:1 mutant (protein)
chain: B1 chain with A202M, C281A
modifications: Zea mays
B22: T220M: bx9 SEQ ID NO:1 mutant (protein)
chain: B1 chain with T220M, C281A
modifications: Zea mays
B23: F210M: bx9 SEQ ID NO:1 mutant (protein)
chain: B1 chain with F210M, C281A
modifications: Zea mays
B24: T220D: bx9 SEQ ID NO:1 mutant (protein)
chain: B1 chain with T220D, C281A
modifications: Zea mays

How the values were obtained:
[1] = UDP luminescence plate assay of E. coli extracts, saturation mutants of SEQ ID NO: 1, herbicide V; type: biochemical, Zea mays; conditions: improvement factor relative to w/t bx9 = 1.0, rounded to nearest 0.5; extract activity basis; compound V
[2] = UDP luminescence plate assay of E. coli extracts, mutants of SEQ ID No: 1, 2 mM metribuzin; type: biochemical, Zea mays; conditions: for SIGNAL: metribuzin signal of mutant divided by the signal of w/t bx9 / luminescence signal observed with 2 mM metribuzin: 2 mM metribuzin; for SIGNAL: metribuzin signal of mutant divided by the signal of w/t bx9: relative to bx9 w/t; for luminescence signal in the DMSO control: mutants of SEQ ID No: 1, DMSO in place of metribuzin (background UDP-glucose hydrolysis); for luminescence signal observed with 2 mM metribuzin: mutants of SEQ ID No: 1 in E. coli extracts, UDP luminescence
Summary of the method: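 Extracts of E. coli BL21 DE3 expressing C-terminally His-tagged SEQ ID NO:1 variants incubated with 2 mM metribuzin; UDP formed read by UDP-Glo luminescence against a UDP standard curve, with optional 95 C stop. Mutants ranked by metribuzin/DMSO signal ratio and signal increase over wild-type bx9.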

Molecule	Preferred amino acid substitutions and (IF) based on RLU/min/ul [1]	also measured
B1		Most Preferred amino acid substitutions and (IF) based on RLU/min/ul [1]: C,Q(3.0); SIGNAL: metribuzin signal of mutant divided by the signal of w/t bx9 [2]: 1.58; luminescence signal in the DMSO control [2]: 4.80E+05; luminescence signal observed with 2 mM metribuzin [2]: 4.43E+05
B2	G,Q,D,V(1.0)	
B3	C,A,N,E,L,I,M(1.5)	
B4	C,A,N,E,L,I,M(1.5)	
B5		Most Preferred amino acid substitutions and (IF) based on RLU/min/ul [1]: S,R(2.5)
B6	G,Q,D,V(1.0)	
B7		Most Preferred amino acid substitutions and (IF) based on RLU/min/ul [1]: 5.0; SIGNAL: metribuzin signal of mutant divided by the signal of w/t bx9 [2]: 2.59; luminescence signal in the DMSO control [2]: 8.45E+05; luminescence signal observed with 2 mM metribuzin [2]: 7.25E+05
B8		Most Preferred amino acid substitutions and (IF) based on RLU/min/ul [1]: C,Q(3.0); SIGNAL: metribuzin signal of mutant divided by the signal of w/t bx9 [2]: 2.82; luminescence signal in the DMSO control [2]: 7.59E+05; luminescence signal observed with 2 mM metribuzin [2]: 7.89E+05
B9	T,I,V,L,F(1.5)	
B10	G,Q,D,V(1.0)	
B11	T,I,V,L,F(1.5)	
B12		Most Preferred amino acid substitutions and (IF) based on RLU/min/ul [1]: S,R(2.5)
B13	C,A,N,E,L,I,M(1.5)	
B14	T,I,V,L,F(1.5)	
B15	C,A,N,E,L,I,M(1.5)	
B16		Most Preferred amino acid substitutions and (IF) based on RLU/min/ul [1]: 3.5
B17	M,W(1.0)	
B18	C,A,N,E,L,I,M(1.5)	
B19	C,A,N,E,L,I,M(1.5)	
B20		Most Preferred amino acid substitutions and (IF) based on RLU/min/ul [1]: 3.0
B21	S,I,C,M(1.0)	
B22	C,A,N,E,L,I,M(1.5)	
B23	M,W(1.0)	
B24	G,Q,D,V(1.0)	

Source: patent US20200270588A1, “GLUCOSYL TRANSFERASE POLYPEPTIDES AND METHODS OF USE” (Syngenta Participations AG, priority 2017, published 2020)
